In publication PMC2810501:

Molecular target: specific saturable binding sites for S100A8/A9 on cell membranes of blood MDSC (carboxylated N-glycan receptors)
Assay: radioligand binding

Substance: S100A8/A9 heterodimer, purified, Na125I-labeled (from UniProt P27005 1-89; P31725 1-113) (complex)
- Kd: 37.4 nM
